Positions count from the first letter of the chain named. A value given as a limit tells only on which side of the number the result lay.

The values that follow come from article PMC4333417 (Nucleic Acids Research, 2015).

T1: Sco5333 (Streptomyces coelicolor, UniProt Q9ADD4 1-301)
T1 sequence: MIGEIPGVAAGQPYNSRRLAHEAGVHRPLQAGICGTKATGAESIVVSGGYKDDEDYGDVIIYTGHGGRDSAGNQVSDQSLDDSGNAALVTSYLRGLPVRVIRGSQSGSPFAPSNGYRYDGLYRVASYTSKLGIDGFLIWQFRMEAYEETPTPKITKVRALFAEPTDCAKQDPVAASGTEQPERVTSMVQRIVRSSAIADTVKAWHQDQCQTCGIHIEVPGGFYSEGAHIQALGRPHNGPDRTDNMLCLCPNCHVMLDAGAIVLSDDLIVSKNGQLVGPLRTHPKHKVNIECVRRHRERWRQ

T2: Tbis1 (Thermobispora bispora DSM 43833, UniProt D6YAC6 2-309)
T2 sequence: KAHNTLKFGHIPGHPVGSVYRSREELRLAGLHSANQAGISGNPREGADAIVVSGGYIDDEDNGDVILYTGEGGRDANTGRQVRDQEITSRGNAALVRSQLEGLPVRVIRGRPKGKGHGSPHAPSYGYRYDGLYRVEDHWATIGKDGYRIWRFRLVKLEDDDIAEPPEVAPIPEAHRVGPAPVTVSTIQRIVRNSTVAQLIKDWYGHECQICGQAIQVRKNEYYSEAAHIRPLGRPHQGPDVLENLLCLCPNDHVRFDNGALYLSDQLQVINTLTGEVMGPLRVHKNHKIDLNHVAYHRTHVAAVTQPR

B1: 54nt bottom methylated (54nt-2/3) (dsDNA)
DNA 1: GAAACCCGACAGGACTATAAAGATACCGGCGTTTCCCCCTGGAAGCTCCCTCGT
DNA 2: ACGAGGGAGCTTCCAGGGGGAAACGCCGGTATCTTTATAGTCCTGTCGGGTTTC
modifications: 5mC at strand 2 pos 27
B2: 66nt fully methylated (66nt-1/3) (dsDNA)
DNA 1: AAAAACGGCGTTTCCGGGTTCCATAGGCTCCGCACCGGTCTCTGATGACCAGGGCATCACATTTTT
DNA 2: AAAAATGTGATGCCCTGGTCATCAGAGACCGGTGCGGAGCCTATGGAACCCGGAAACGCCGTTTTT
modifications: 5mC at strand 1 pos 36 and strand 2 pos 30
B3: 54nt top methylated (54nt-1/4) (dsDNA)
DNA 1: B1 DNA 1
DNA 2: B1 DNA 2
modifications: 5mC at strand 1 pos 27
B4: 56nt top methylated (56nt-1/4) (dsDNA)
DNA 1: CGGCGTTTCCGGGTTCCATAGGCTCCGCTCCGGCCTCTGATGACCAGGGCATCACA
DNA 2: TGTGATGCCCTGGTCATCAGAGGCCGGAGCGGAGCCTATGGAACCCGGAAACGCCG
modifications: 5mC at strand 1 pos 31
B5: 56nt bottom methylated (56nt-2/3) (dsDNA)
DNA 1: B4 DNA 1
DNA 2: B4 DNA 2
modifications: 5mC at strand 2 pos 25 (Table S3; methods print 24)
B6: 56nt non-methylated (56nt-2/4) (dsDNA)
DNA 1: B4 DNA 1
DNA 2: B4 DNA 2
B7: 55ntDcm2 fully methylated (55nt-5/7) (dsDNA)
DNA 1: ACTATAAAGATACCAGGCGTTTCCCCCTGGAAGCTCCCTCGTGCGCTCTCCTGTT
DNA 2: AACAGGAGAGCGCACGAGGGAGCTTCCAGGGGGAAACGCCTGGTATCTTTATAGT
modifications: 5mC at strand 1 pos 27 and strand 2 pos 27
B8: 55ntDcm2 top methylated (55nt-5/8) (dsDNA)
DNA 1: B7 DNA 1
DNA 2: B7 DNA 2
modifications: 5mC at strand 1 pos 27
B9: 55ntDcm2 non-methylated (55nt-6/8) (dsDNA)
DNA 1: B7 DNA 1
DNA 2: B7 DNA 2
B10: 55ntDcm2 bottom methylated (55nt-6/7) (dsDNA)
DNA 1: B7 DNA 1
DNA 2: B7 DNA 2
modifications: 5mC at strand 2 pos 27
B11: 55ntDcm1 non-methylated (55nt-2/4) (dsDNA)
DNA 1: GAAACCCGACAGGACTATAAAGATACCAGGCGTTTCCCCCTGGAAGCTCCCTCGT
DNA 2: ACGAGGGAGCTTCCAGGGGGAAACGCCTGGTATCTTTATAGTCCTGTCGGGTTTC
B12: 55ntDcm1 CmCTGG bottom (55nt-22/23) (dsDNA)
DNA 1: B11 DNA 1 with A28T
DNA 2: B11 DNA 2 with T28A
modifications: 5mC at strand 2 pos 27
B13: 55ntDcm1 CmCCGG top (55nt-25/28) (dsDNA)
DNA 1: B11 DNA 1 with A28C
DNA 2: B11 DNA 2 with T28G
modifications: 5mC at strand 1 pos 27
B14: 55ntDcm1 top methylated (55nt-1/4) (dsDNA)
DNA 1: B11 DNA 1
DNA 2: B11 DNA 2
modifications: 5mC at strand 1 pos 27
B15: 55ntDcm1 TmCAGG top (55nt-17/20) (dsDNA)
DNA 1: B11 DNA 1 with C26T
DNA 2: B11 DNA 2 with G30A
modifications: 5mC at strand 1 pos 27
B16: 55ntDcm1 CmCCGG bottom (55nt-26/27) (dsDNA)
DNA 1: B11 DNA 1 with A28C
DNA 2: B11 DNA 2 with T28G
modifications: 5mC at strand 2 pos 27
B17: 55ntDcm1 GmCAGG bottom (55nt-10/11) (dsDNA)
DNA 1: B11 DNA 1 with C26G
DNA 2: B11 DNA 2 with G30C
modifications: 5mC at strand 2 pos 27
B18: 55ntDcm1 CmCCGG full (55nt-25/27) (dsDNA)
DNA 1: B11 DNA 1 with A28C
DNA 2: B11 DNA 2 with T28G
modifications: 5mC at strand 1 pos 27 and strand 2 pos 27
B19: 55ntDcm1 GmCAGG top (55nt-9/12) (dsDNA)
DNA 1: B11 DNA 1 with C26G
DNA 2: B11 DNA 2 with G30C
modifications: 5mC at strand 1 pos 27
B20: 55ntDcm1 fully methylated (55nt-1/3) (dsDNA)
DNA 1: B11 DNA 1
DNA 2: B11 DNA 2
modifications: 5mC at strand 1 pos 27 and strand 2 pos 27
B21: 55ntDcm1 CmCTGG top (55nt-21/24) (dsDNA)
DNA 1: B11 DNA 1 with A28T
DNA 2: B11 DNA 2 with T28A
modifications: 5mC at strand 1 pos 27
B22: 55ntDcm1 CmCGGG top (55nt-29/32) (dsDNA)
DNA 1: B11 DNA 1 with A28G
DNA 2: B11 DNA 2 with T28C
modifications: 5mC at strand 1 pos 27
B23: 55ntDcm1 CmCGGG full (55nt-29/31) (dsDNA)
DNA 1: B11 DNA 1 with A28G
DNA 2: B11 DNA 2 with T28C
modifications: 5mC at strand 1 pos 27 and strand 2 pos 27
B24: 55ntDcm1 GmCAGG full (55nt-9/11) (dsDNA)
DNA 1: B11 DNA 1 with C26G
DNA 2: B11 DNA 2 with G30C
modifications: 5mC at strand 1 pos 27 and strand 2 pos 27
B25: 55ntDcm1 AmCAGG top (55nt-13/16) (dsDNA)
DNA 1: B11 DNA 1 with C26A
DNA 2: B11 DNA 2 with G30T
modifications: 5mC at strand 1 pos 27
B26: 55ntDcm1 CmCTGG full (55nt-21/23) (dsDNA)
DNA 1: B11 DNA 1 with A28T
DNA 2: B11 DNA 2 with T28A
modifications: 5mC at strand 1 pos 27 and strand 2 pos 27
B27: 55ntDcm1 TmCAGG bottom (55nt-18/19) (dsDNA)
DNA 1: B11 DNA 1 with C26T
DNA 2: B11 DNA 2 with G30A
modifications: 5mC at strand 2 pos 27
B28: 55ntDcm1 AmCAGG full (55nt-13/15) (dsDNA)
DNA 1: B11 DNA 1 with C26A
DNA 2: B11 DNA 2 with G30T
modifications: 5mC at strand 1 pos 27 and strand 2 pos 27
B29: 55ntDcm1 TmCAGG full (55nt-17/19) (dsDNA)
DNA 1: B11 DNA 1 with C26T
DNA 2: B11 DNA 2 with G30A
modifications: 5mC at strand 1 pos 27 and strand 2 pos 27
B30: 55ntDcm1 CmCGGG bottom (55nt-30/31) (dsDNA)
DNA 1: B11 DNA 1 with A28G
DNA 2: B11 DNA 2 with T28C
modifications: 5mC at strand 2 pos 27
B31: 55ntDcm1 bottom methylated (55nt-2/3) (dsDNA)
DNA 1: B11 DNA 1
DNA 2: B11 DNA 2
modifications: 5mC at strand 2 pos 27
B32: 55ntDcm1 AmCAGG bottom (55nt-14/15) (dsDNA)
DNA 1: B11 DNA 1 with C26A
DNA 2: B11 DNA 2 with G30T
modifications: 5mC at strand 2 pos 27
B33: Sco5333 (enzyme, Streptomyces coelicolor, UniProt Q9ADD4 1-301, looked up)
chain: T1 sequence

Sequence of MBD of human MeCP2 (P51608 77-166): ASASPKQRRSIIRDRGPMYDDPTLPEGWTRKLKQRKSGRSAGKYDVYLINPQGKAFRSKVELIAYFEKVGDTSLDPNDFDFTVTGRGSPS

The target of one data set is T1, Sco5333. Briefly: ITC. (In ITC the heat of successive injections is recorded.)
For B1, the dissociation constant (Kd) was determined as 1470 nM.

A further data set has as its target MBD of human MeCP2 (human, UniProt P51608 77-166). Briefly: EMSA.
Turning to B2, the binding signal was 64 fold preference over non-methylated.

The target in another data set is T1, Sco5333. Briefly: ITC. The source holds these as a separate data set.
As to B3, the dissociation constant Kd was 3140 nM.

Another data set addresses T2, Tbis1. The experiment in a line: EMSA.
Consider B2, for which the binding signal is > 100 fold preference over non-methylated.

Another data set addresses T2, Tbis1. Briefly: EMSA. The source holds these as a separate data set. In general terms: A gel shift assay detects complexes by their altered migration in electrophoresis.
As for B4, the binding result is recorded as “binds”.

For the molecule B5, the binding result is “binds”.

Consider B6, for which the binding result is listed as “no binding”.

For the next data set, the target named is T1, Sco5333. Briefly: EMSA.
Regarding B7, the binding result is given as “binds”.

As for B8, the binding result is listed as “binds”.

For the molecule B9, the binding result is “no binding”.

As for B10, the binding result is “binds”.

Turning to B11, the binding result is on record as “no binding”.

B12: the binding result is on record as “binds”.

With B13, the binding result was “binds”.

In the case of B14, the binding result is reported as “binds”.

Consider B15, for which the binding result is listed as “binds”.

Turning to B16, the binding result is recorded as “binds”.

On to B17, for which the binding result is “binds”.

As to B18, the binding result is recorded as “binds”.

Consider B19, for which the binding result is “binds”.

On to B20, for which the binding result is “binds”.

With B21, the binding result is given as “binds”.

Take B22: the binding result is “binds”.

With B23, the binding result is “binds”.

B24: the binding result was “binds”.

With B25, the binding result is on record as “binds”.

With B26, the binding result was “binds”.

For B27, the binding result is “binds”.

On to B28, for which the binding result is “binds”.

Consider B29, for which the binding result is “binds”.

Turning to B30, the binding result was “binds”.

Consider B31, for which the binding result is “binds”.

For B32, the binding result is reported as “binds”.

For the next data set, the target named is MBD of mouse MeCP2 (mouse, UniProt Q9Z2D6 77-165). Briefly: EMSA.
Sequence of MBD of mouse MeCP2 (Q9Z2D6 77-165): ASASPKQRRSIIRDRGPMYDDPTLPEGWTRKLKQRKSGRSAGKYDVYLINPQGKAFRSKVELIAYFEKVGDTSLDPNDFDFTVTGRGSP
As to B3, the binding result was “no binding”.

As for B1, the binding result is recorded as “no binding”.

The next data set deals with the molecule itself. Briefly: SEC.
For the molecule B33, the “stoichiometry N” value was 2.

For orientation: Kd means the equilibrium constant for the complex coming apart. A lower Kd goes with higher affinity. One may read the stoichiometry N as a count of units in the complex or per binding partner.
